How the values were obtained:
[1] = target: T1, NMDARs of RVLM-projecting PVN neurons (Rattus norvegicus, UniProt P35439+Q00959+Q00960); assay: Recordings of RVLM-projecting PVN neurons in slices of WKY rats and SHRs; assay type: cell-based
T1 construct: from tissue; host or cells: rat hypothalamic slices containing the PVN (Sprague-Dawley, WKY, SHR) and synaptosomes made from them

α2δ-1-Cav2.2 association = target: T2, α2δ-1-Cav2.2 association (Mus musculus, UniProt O08532+O55017); assay: Co-IP of α2δ-1 and Cav2.2 in mouse brain slices subjected to OGD; assay type: cell-based; settings: 1 μM for 30 min
T2 construct: from tissue; host or cells: mouse brain slices subjected to OGD, membrane extracts
Protocol: FIGS. 22A-22D: α2δ-1-bound NMDARs contribute to brain injury and neurological deficit caused by MCAO in the brain. (A) Upper: Original gel images of coimmunoprecipitation (co-IP) analysis show the interaction between α2δ-1 and GluN1 in two samples from mouse brain tissues; Lower: Effect of α2δ-1Tat peptide (1 μM for 60 min) on the α2δ-1-GluN1 protein complex in mouse brain tissues (n=6 mice per group). (B) Representative gel images and quantification of co-IP analysis show the effect of OGD on the α2δ-1-GluN1 or α2δ-1-Cav2.2 association in mouse brain tissues (n=6 mice per group). IgG and input were used as negative and positive controls, respectively. (C) Original gel images and quantification of co-IP analysis show the effect of α2δ-1Tat peptide (P) and control peptide (C; both 1 μM for 30 min) on the α2δ-1-GluN1 or α2δ-1-Cav2.2 association in mouse brain slices subjected to OGD (O, n=6 mice per group). (D) Neurological severity scores (left) and representative TTC staining and quantification (right) of brain infarct volume in MCAO mice treated with α2δ-1Tat peptide or control peptide (both 200 μg/kg, i.p.) at 15 min before MCAO and immediately before reperfusion (n=8 mice per group). Data are shown as means±SEM. *p<0.05, **p<0.01 compared with the control peptide- or vehicle-treated group (paired Student's t-test for panels B-D and F; Mann-Whitney test for panel E). […]

SNL rats = assay: Withdrawal thresholds in spinal nerve ligation (SNL), sham and naive rats; assay type: in vivo, rat
Text: Animal models of neuropathic pain: All surgical preparations and experimental protocols were approved by the Animal Care and Use Committee of the University of Texas MD Anderson Cancer Center and conformed to the National Institutes of Health guidelines for the ethical use of animals. Male Sprague-Dawley rats (8-10 weeks of age) were purchased from Harlan Laboratories (Indianapolis, Ind.). L5 and L6 spinal nerve ligation (SNL) were used as an experimental model of neuropathic pain (Cole et al., 2005). In brief, anesthesia was induced with 2-3% isoflurane, isolated the left L5-L6 spinal nerves and ligated them tightly with 6-0 silk sutures. The rats in the sham control group underwent the same surgical procedures except for the nerve ligation.
Intrathecal catheters were implanted in some SNL group rats during isoflurane-induced anesthesia 2-3 weeks after SNL surgery. Briefly, the anesthetized animal was placed on a stereotaxic frame, and a small incision was made at the back of its neck. Then, a small puncture was made in the atlanto-occipital membrane of the cisterna magna, and a PE-10 catheter (˜8 cm) was inserted with the caudal tip reaching the lumbar enlargement of the spinal cord (Luo et al., 2001; Patel et al., 2013). The rostral end of the catheter was exteriorized and closed the wound with sutures. The animals were allowed to recover for at least 4 days before the intrathecal injections were performed. Animals displaying signs of motor or neurological dysfunction were immediately killed with an intraperitoneal injection of phenobarbital (200 mg/kg) or by inhalation of CO2.
Behavioral assessments of nociception: To detect tactile allodynia, von Frey filaments were applied to the animals' left hindpaws (ipsilateral to the nerve injury). The rats or mice were placed individually in suspended chambers on a mesh floor. After an acclimation period of 30 min, a series of calibrated von Frey filaments were applied (Stoelting, Wood Dale, Ill.) perpendicularly to the plantar surface of the hindpaw with sufficient force to bend the filament for 6 s. Brisk withdrawal or paw flinching was considered a positive response. After a response, the filament of the next lower force was applied. In the absence of a response, the filament of the next greater force was applied. Using the up-down method, the tactile stimulus that produced a 50% likelihood of a withdrawal response was calculated (Fuller-Bicer et al., 2009).
To quantify the mechanical nociceptive threshold in the rats and mice (Patel et al., 2013; Dolphin et al., 2012), the paw pressure tests were conducted on the hindpaw with an analgesiometer (Ugo Basile, Varese, Italy). The device was activated by pressing a foot pedal, which triggered a motor that applied a constantly increasing force on a linear scale. […]

T1 sequence (Q00959 20-1464 limits assumed, other chains not shown): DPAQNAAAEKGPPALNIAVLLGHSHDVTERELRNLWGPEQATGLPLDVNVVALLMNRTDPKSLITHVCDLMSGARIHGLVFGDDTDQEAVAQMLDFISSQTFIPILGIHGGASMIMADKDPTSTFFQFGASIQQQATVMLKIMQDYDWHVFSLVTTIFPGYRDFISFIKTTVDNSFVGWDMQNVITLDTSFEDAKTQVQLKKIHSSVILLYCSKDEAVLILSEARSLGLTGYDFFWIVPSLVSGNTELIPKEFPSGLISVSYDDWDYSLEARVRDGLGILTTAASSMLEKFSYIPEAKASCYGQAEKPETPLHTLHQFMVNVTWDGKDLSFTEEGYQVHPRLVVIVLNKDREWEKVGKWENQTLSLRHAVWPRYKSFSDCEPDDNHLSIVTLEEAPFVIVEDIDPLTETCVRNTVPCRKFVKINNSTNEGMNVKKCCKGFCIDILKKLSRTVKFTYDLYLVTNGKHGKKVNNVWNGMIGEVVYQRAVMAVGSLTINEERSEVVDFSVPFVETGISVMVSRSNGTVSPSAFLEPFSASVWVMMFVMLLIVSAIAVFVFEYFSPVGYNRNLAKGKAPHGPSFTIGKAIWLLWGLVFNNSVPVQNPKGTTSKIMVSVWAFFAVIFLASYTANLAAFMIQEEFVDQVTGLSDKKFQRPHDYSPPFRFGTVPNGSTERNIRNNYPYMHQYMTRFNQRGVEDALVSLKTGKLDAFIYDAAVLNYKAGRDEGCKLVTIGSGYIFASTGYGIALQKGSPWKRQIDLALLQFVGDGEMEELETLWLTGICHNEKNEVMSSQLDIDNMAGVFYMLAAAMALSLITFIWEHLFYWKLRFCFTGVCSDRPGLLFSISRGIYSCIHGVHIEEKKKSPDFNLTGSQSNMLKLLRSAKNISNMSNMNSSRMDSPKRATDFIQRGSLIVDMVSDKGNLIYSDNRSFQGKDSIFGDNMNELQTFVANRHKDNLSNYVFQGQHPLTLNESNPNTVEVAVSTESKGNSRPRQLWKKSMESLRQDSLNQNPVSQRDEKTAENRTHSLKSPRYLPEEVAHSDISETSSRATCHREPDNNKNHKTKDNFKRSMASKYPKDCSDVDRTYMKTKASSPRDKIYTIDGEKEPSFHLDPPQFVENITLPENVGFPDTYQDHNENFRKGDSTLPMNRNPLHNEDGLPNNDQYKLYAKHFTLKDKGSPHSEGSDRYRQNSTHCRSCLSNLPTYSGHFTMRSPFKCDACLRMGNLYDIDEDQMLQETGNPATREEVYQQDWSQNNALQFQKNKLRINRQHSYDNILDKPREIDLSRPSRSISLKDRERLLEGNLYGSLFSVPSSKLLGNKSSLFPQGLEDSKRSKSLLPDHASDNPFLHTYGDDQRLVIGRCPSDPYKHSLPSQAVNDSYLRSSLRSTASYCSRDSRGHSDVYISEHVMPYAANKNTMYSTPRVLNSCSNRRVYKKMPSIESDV
T1 sequence (Q00960 27-1482, other chains not shown): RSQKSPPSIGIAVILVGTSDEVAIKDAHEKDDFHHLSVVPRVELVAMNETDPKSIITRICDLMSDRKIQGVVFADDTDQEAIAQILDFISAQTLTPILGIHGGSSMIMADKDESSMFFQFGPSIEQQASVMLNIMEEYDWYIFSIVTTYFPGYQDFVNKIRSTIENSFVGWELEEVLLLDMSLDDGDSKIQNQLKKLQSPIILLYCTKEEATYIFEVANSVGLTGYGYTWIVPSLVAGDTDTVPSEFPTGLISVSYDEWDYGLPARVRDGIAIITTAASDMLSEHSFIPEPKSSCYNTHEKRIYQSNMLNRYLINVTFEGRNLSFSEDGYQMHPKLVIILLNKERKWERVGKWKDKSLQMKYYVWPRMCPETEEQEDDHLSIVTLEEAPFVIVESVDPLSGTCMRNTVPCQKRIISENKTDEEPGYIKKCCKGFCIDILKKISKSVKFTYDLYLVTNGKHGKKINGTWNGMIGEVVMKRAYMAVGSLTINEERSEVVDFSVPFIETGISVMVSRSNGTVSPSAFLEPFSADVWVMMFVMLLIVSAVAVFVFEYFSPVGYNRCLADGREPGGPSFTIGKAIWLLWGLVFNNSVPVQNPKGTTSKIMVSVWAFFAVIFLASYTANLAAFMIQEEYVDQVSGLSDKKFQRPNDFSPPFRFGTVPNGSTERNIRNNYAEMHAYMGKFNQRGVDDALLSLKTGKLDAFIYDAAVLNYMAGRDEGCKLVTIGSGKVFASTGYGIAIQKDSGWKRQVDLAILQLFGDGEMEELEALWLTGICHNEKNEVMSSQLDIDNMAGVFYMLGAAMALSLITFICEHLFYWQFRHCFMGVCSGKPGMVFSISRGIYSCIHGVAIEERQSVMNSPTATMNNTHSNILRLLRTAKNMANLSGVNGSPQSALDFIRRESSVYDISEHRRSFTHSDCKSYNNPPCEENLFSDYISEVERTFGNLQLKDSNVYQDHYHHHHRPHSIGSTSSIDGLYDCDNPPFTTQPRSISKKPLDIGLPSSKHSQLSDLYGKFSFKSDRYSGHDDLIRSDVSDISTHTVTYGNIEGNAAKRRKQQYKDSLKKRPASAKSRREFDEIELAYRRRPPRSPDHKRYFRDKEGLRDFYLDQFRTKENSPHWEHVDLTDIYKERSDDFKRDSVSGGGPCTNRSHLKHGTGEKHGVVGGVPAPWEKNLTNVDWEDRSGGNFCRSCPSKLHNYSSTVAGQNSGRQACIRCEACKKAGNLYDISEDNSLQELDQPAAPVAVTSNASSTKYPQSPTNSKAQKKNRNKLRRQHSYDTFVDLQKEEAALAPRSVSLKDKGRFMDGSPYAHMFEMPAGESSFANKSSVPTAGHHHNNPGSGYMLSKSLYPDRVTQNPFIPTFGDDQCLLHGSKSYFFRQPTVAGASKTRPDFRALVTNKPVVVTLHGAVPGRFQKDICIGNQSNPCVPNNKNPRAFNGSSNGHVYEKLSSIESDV

## YGRKKRRQRRRVSGLNPSLWSIFGLQFILLWLVSGSRHYLW (a2d1 peptide) [α2δ-1Tat peptide, 30-amino-acid peptide mimicking the C-terminal domain of α2δ-1 fused to the cell-penetrating peptide Tat]
[1]; SHRs
  puff NMDA currents of labelled PVN neurons: restored
  ratio of NMDAR-EPSCs to AMPAR-EPSCs: normalized
[1]; SHRs, AP5 50 μmol L-1, gabapentin 100 μmol L-1, peptides 1 μmol L-1, 60 min
  baseline frequency of mEPSCs of labelled PVN neurons: completely normalized
[1]; SHRs, gabapentin 100 μmol L-1, peptides 1 μmol L-1, 60 min
  amplitude of evoked NMDAR-EPSCs of labelled PVN neurons: fully normalized
[1]; WKY rats
  amplitude of puff NMDA currents: had no effect
  frequency or amplitude of mEPSCs of labelled PVN neurons: had no effect
  ratio of NMDAR-EPSCs to AMPAR-EPSCs: had no effect
[1]; WKY rats or SHRs
  amplitude of evoked AMPAR-EPSCs of labelled PVN neurons: had no effect
[1]; WKY rats, gabapentin 100 μmol L-1, peptides 1 μmol L-1, 60 min
  amplitude of evoked NMDAR-EPSCs of labelled PVN neurons: had no effect
α2δ-1-Cav2.2 association
  α2δ-1-Cav2.2 association in brain tissues subjected to OGD: had no effect
SNL rats; SNL rats, peptides intrathecal or systemic, siRNA intrathecal
  pain hypersensitivity of SNL rats: large reduction
SNL rats; sham control rats
  withdrawal thresholds in sham control rats: had no effect

Reference: patent US11787839B2, “Targeting α2δ-1-bound glutamate receptors for treating diseases and disorders” (Board of Regents, The University of Texas System, priority 2017, dated 2023)
